Assay [1] deals with T1, rat IL-23R extracellular domain (ECD) protein (rat).
T1 construct: also called rat IL-23R ECD; F1LX96 amino acids 24-354
T1 chain: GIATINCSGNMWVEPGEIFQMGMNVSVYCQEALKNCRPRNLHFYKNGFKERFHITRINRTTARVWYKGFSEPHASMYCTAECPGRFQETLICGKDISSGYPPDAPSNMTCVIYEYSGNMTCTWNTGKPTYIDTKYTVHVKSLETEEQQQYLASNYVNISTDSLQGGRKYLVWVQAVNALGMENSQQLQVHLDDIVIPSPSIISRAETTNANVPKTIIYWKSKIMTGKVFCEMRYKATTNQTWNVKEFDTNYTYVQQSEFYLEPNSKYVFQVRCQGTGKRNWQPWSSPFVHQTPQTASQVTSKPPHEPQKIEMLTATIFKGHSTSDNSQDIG
The assay can be described thus: SPR Biacore 8K, supernatant. The procedure: (§1) Affinity by SPR using Biacore 8K. Affinity measurements using Surface Plasmon Resonance (SPR) were performed using a Biacore 8K system (Cytiva). […] Approximately 9000-10000 RU (response units) of mAbs were immobilized. The kinetic experiments were performed at 25° C. in running buffer 1× of (HBS-P+ Buffer 10× (Cytiva #BR100671)+100 μg/ml BSA). To perform kinetic experiments, approximately 150 RU of mAbs were captured followed by injections of human IL-23R or rat IL-23R at concentrations ranging from 0.8 nM to 500 nM (in a 5-fold serial dilution). The association phase was monitored for 3 minutes at 50 μL/min, then followed by 30 minutes of buffer flow (dissociation phase). […] The collected data were processed using Biacore insight Evaluation software (Version 3.0.12.15655). The kinetic analysis of the data was performed using a Langmuir 1:1 binding model. The result for each mAb was reported in the format of Ka (On-rate), Kd (Off-rate) and KD (equilibrium dissociation constant).
(Surface plasmon resonance follows binding to a sensor surface in real time, without labels.)

Assay [2] deals with T2, Recombinant human IL-23 receptor (IL-23R) extracellular domain (ECD) protein (human, UniProt Q5VWK5 24-355).
T2 construct: also called human IL-23R ECD; hu IL-23R ECD
T2 sequence: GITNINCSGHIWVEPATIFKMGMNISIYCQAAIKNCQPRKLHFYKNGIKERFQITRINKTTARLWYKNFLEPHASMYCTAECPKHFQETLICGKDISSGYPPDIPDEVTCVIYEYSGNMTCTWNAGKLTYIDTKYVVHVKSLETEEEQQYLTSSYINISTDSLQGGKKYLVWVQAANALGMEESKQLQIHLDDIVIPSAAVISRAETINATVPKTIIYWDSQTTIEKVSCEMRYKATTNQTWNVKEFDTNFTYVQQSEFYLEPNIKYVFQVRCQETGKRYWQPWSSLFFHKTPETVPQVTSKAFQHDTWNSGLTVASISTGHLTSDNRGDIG
The assay can be described thus: SPR Biacore 8K, supernatant, analysis 2. The protocol: as §1

Assay [3] addresses T2, Recombinant human IL-23 receptor …. The assay can be described thus: SPR Biacore 8K, supernatant, analysis 1. The procedure: as §1

Bounds are passed on as bounds.

For orientation: Kd means the equilibrium constant for the complex coming apart. Broadly, the koff is a measure of how fast the partners let go of each other. One may read the kon as a measure of how fast the partners come together.

B1: I23RB81 (antibody, mouse IgG2a, kappa, V domains shown)
VH: DVQLQESGPGLVAPSQSLSITCTVSGFSLTSYAINWVRQPPGKGLEWLGVIWTGGGTNYNSALKSRLSISKDNSKSQLFLKMNSLQTDDTARYYCARNRDYSNYRWYFDVWGAGTSVTVSS
VL: DIVMTQSHKFMSTSVGDRVSIICKASQDVSTAVAWYQQKPGQSPKLLIYSASYRYTGVPDRFTGSGSGTDFTFTISSVQAEDLAVYYCQQHYSTPLTFGAGTRLEIKR
notes: mouse immunization; mouse IgG2a/kappa
For the molecule B1, the binding result in assay [1] was “no binding (tested: 500 nM)”. Moreover, in assay [2], the Kd is 8.89 nM, the koff stood at 0.00173 s⁻¹ and the kon turned out to be 195000 M⁻¹ s⁻¹.

B2: I23RB67 (antibody, mouse IgG2a, kappa, V domains shown)
VH: EVQLQQSGAELVKPGASVKLSCKASGYTFTSYWINWVKQRPGQGLEWIGNIYPGSSSTNYNEKFKSKATLTVDTSSSTAYMQLSSLTSDDSAVYYCARSAYGNRLAMDYWGQGTTLTVSS
VL: DVVMTQSHKFMSTSVGDRVSITCKASQDVSTAVAWYQQKPGQSPKLLIYSAFYRYTGVPDRFTGSGSGTDFTFTISSVQAEDLAVYYCQQHYSTPYTFGGGTKLELKR
notes: as for B1
On to B2, for which the binding result in assay [1] is on record as “no binding (tested: 500 nM)”. Also, in assay [2], the dissociation constant (Kd) came out at 25.4 nM, the koff is 0.0172 s⁻¹ and the kon was determined as 677000 M⁻¹ s⁻¹.

B3: I23RB54 (antibody, mouse IgG2a, kappa, V domains shown)
VH: EVQLQQSGGGLVKPGGSLKLSCAASGFTFSSYAMSWVRQTPEKRLEWVAGISSGGSYIYYPDNVKGRFTISRDNARNTLYLQMSSLRSEDTAMYYCARKKSDYGAMDYWGQGTTLTVSS
VL: DIQMTQSPKFLLVSAGDRVTITCKASQSVSNDVAWYQQKPGQSPRLLIYYASNRYTGVPDRFTGSGYGTDFTFTISTVQAEDLAVYFCQQDYSSLPTFGAGTKLEMKR
notes: as for B1
Regarding B3, in assay [1], the binding result is “no binding (tested: 500 nM)”. In assay [2], the Kd is 183 nM, the koff stood at 0.0979 s⁻¹ and the kon was determined as 534000 M⁻¹ s⁻¹.

B4: I23RB318 (antibody, mouse IgG2a, kappa, V domains shown)
VH: QVQLVQSGAEVKKPGSSVKVSCKASGGTFSSYAISWVRQAPGQGLEWMGGIIPIFGTANYAQKFQGRVTITADESTSTAYMELSSLRSEDTAVYYCARVRARHRGSFDYWGQGTLVTVSS
VL: DIQMTQSPSSLSASVGDRVTITCRASQSIDRWLNWYQQKPGKAPKLLIYYASSLQSGVPSRFSGSGSGTDFTLTISSLQPEDFATYYCQQSYSTPLTFGQGTKVEIKR
notes: phage display; human V regions, mouse IgG2a/kappa constant regions
As to B4, the binding result in assay [1] is “no binding (tested: 500 nM)”. In addition, in assay [3], the Kd was determined as 21.3 nM, the koff was found to be 0.00167 s⁻¹ and the kon worked out at 78400 M⁻¹ s⁻¹. Besides, in assay [2], the Kd came to 21.4 nM, the koff was found to be 0.00156 s⁻¹ and the kon is 72900 M⁻¹ s⁻¹.

B5: I23RB313 (antibody, mouse IgG2a, kappa, V domains shown)
VH: QVQLVQSGAEVKKPGSSVKVSCKASGGTFSSYGISWVRQAPGQGLEWMGWISAIFGTTNYAQKFQGRVTITADESTSTAYMELSSLRSEDTAVYYCARGTVPGFDYWGQGTLVTVSS
VL: DIQMTQSPSSLSASVGDRVTITCRASQSIGEDLNWYQQKPGKAPKLLIYAASSLQSGVPSRFSGSGSGTDFTLTISSLQPEDFATYYCQQSYSTPLTFGQGTKVEIKR
notes: as for B4
Regarding B5, the binding result in assay [1] is given as “no binding (tested: 500 nM)”. Moreover, in assay [3], the dissociation constant (Kd) was under 4.98 nM, the koff is under 2.89e-05 s⁻¹ and the kon came to 5800 M⁻¹ s⁻¹. In assay [2], the Kd was found to be 4.85 nM, the koff was determined as 0.000108 s⁻¹ and the kon was determined as 22300 M⁻¹ s⁻¹.

B6: I23RB102 (antibody, mouse IgG2a, kappa, V domains shown)
VH: QVQLQQPGAELVKPGASVKVSCKASGYTFTKYWINWMNQRPGQGLEWIGNIYPGSISTNYNEKFKSKVTLTVDISSSTAYMQLSSLTSDDSAVYYCARGDFYALDYWGQGTTLTVSS
VL: DIQMTQSPASLSVSVGETVTITCRASENIYSHITWYQLKQGKSPQLLVYASTNLADDVPSRFSGSGSGTQYSLKINSLLSEDFGTYYCQHFWGTPWTFGGGTKLEMKR
notes: as for B1
In the case of B6, the binding result in assay [1] is reported as “no binding (tested: 500 nM)”. In addition, in assay [2], the Kd stood at 18.5 nM, the koff stood at 0.00873 s⁻¹ and the kon worked out at 471000 M⁻¹ s⁻¹.

B7: I23RB87 (antibody, mouse IgG2a, kappa, V domains shown)
VH: EFQLQQSGPELVKPGTSVKMSCKASGYTFTNYVMHWVKQKPGQGLEWIGYINPYDASPKYNEKFKGKAILTSDKSSSTAYMELSSLTSEDSAVYYCTRDAKLDYFDYWGQGTTLTVSS
VL: DIVMTQTTSSLSASLGDRVTISCRASQDISNYLNWYQQKPDGTVKLLIYYTSRLHSGVPSRFSGSGSGTDFSLTISNLEQEDIATYFCQQGITLPWTFGAGTKLELKR
notes: as for B1
For the molecule B7, in assay [1], the binding result was “no binding (tested: 500 nM)”. Further, in assay [2], the dissociation constant Kd worked out at 10.9 nM, the koff was 0.000945 s⁻¹ and the kon is 86500 M⁻¹ s⁻¹.

B8: I23RB74 (antibody, mouse IgG2a, kappa, V domains shown)
VH: DVQLQESGPGLVKPSQSLSLTCSVTGYSITSGYYWNWIRQFPGNKLEWMGYISYDGSFNYNPSLKNRLSITRDTSMNQFFLKLNSVTSEDTATYYCARAEIYYDYDGDFDYWGQGTTLTVSS
VL: DIVLTQSPASLAVSLGQRATISCRASKSVSTSGSNFLHWYQQKPGQPPKLLIYFASNLESGVPARFSGSGSGTDFTLNIHPVEEEDAATYYCQHSRELPHTFGAGTKLELKR
notes: as for B1
On to B8, for which the binding result in assay [1] is “no binding (tested: 500 nM)”. Besides, in assay [2], the Kd came to 2.33 nM, the koff turned out to be 0.00222 s⁻¹ and the kon stood at 954000 M⁻¹ s⁻¹.

B9: I23RB270 (antibody, mouse IgG2a, kappa, V domains shown)
VH: QVQLVQSGAEVKKPGSSVKVSCKASGGTFDSYAISWVRQAPGQGLEWMGGIIPISGYANYAQKFQGRVTITADESTSTAYMELSSLRSEDTAVYYCARDLSGGYLGLRTLYYYYFDYWGQGTLVTVSS
VL: EIVLTQSPATLSLSPGERATLSCRASQSVSSYLAWYQQKPGQAPRLLIYDASNRATGIPARFSGSGSGTDFTLTISSLEPEDFAVYYCQQRSNWPLTFGQGTKVEIKR
notes: as for B4
With B9, in assay [1], the binding result was “no binding (tested: 500 nM)”. Also, in assay [3], the Kd came out at 1.91 nM, the koff worked out at 0.00102 s⁻¹ and the kon came to 535000 M⁻¹ s⁻¹. For the same molecule, in assay [2], the Kd worked out at 2.46 nM, the koff was determined as 0.00101 s⁻¹ and the on-rate (kon) stood at 409000 M⁻¹ s⁻¹.

B10: I23RB268 (antibody, mouse IgG2a, kappa, V domains shown)
VH: QVQLVQSGAEVKKPGSSVKVSCKASGGTFSSYYIHWVRQAPGQGLEWMGGIIPIFGYANYAQKFQGRVTITADESTSTAYMELSSLRSEDTAVYYCARDPGSYGSVYYRRSYYFDYWGQGTLVTVSS
VL: EIVLTQSPATLSLSPGERATLSCRASQSVSSYLAWYQQKPGQAPRLLIYDASNRATGIPARFSGSGSGTDFTLTISSLEPEDFAVYYCQQRSNWPLTFGQGTKVEIKR
notes: as for B4
For B10, the binding result in assay [1] is given as “no binding (tested: 500 nM)”. For the same molecule, in assay [3], the Kd is 12 nM, the koff is 0.000273 s⁻¹ and the kon was 22800 M⁻¹ s⁻¹. Besides, in assay [2], the Kd was determined as 18.9 nM, the koff was found to be 0.000308 s⁻¹ and the kon is 16300 M⁻¹ s⁻¹.

B11: I23RB269 (antibody, mouse IgG2a, kappa, V domains shown)
VH: QVQLVQSGAEVKKPGSSVKVSCKASGGTFSDASISWVRQAPGQGLEWMGTIIPISGNANYAQKFQGRVTITADESTSTAYMELSSLRSEDTAVYYCARDRYVWYYWDGYFDYWGQGTLVTVSS
VL: not shown
notes: as for B4
Regarding B11, the binding result in assay [1] was “no binding (tested: 500 nM)”. In assay [3], the Kd is 1.09 nM, the koff was determined as 0.000514 s⁻¹ and the kon was determined as 473000 M⁻¹ s⁻¹. For the same molecule, in assay [2], the Kd turned out to be 1.41 nM, the koff is 0.000542 s⁻¹ and the kon was 385000 M⁻¹ s⁻¹.

B12: I23RB78 (antibody, mouse IgG2a, kappa, V domains shown)
VH: EFQLQQSGGGLVKPGGSLKLSCAASGFTFSNYTMSWVRQTPEKRLKWVACISSGGGNTYYPDSVKGRFTISRDNARNTLYLQMSSLRSEDTAMYYCARRNYRRAMDYWGQGTSVTVSS
VL: DIVMTQSPASLAVSLGQRATISCRASESVDSYGISFMHWYQQKPGQPPKLLIYRASNLESGIPARFSGSGSRTDFTLTINPVEADDVATYYCQQSNEDPWTFGAGTGLEIKR
notes: as for B1
For the molecule B12, in assay [1], the binding result was “no binding (tested: 500 nM)”. In addition, in assay [2], the Kd turned out to be 4.33 nM, the koff was found to be 0.000774 s⁻¹ and the kon was 179000 M⁻¹ s⁻¹.

For the origin of these results see patent US20250179196A1 (Janssen / Centocor, published 2025).
